# Experimental data: US20090105152A1
# Numbered stars: 1 amine (or outer) side, 2 acyl side, 3 side chain; on linkers, the order of the positions; unused ones are H or OH. Square brackets hold non-standard residues; d marks the D form. Primed or numbered codes have the meaning given here. Azetidine3carboxylic = O=C(C1CN([*:1])C1)[*:2]; Phe(βS-OH) = N[C@H](C(=O)O)[C@@H](O)c1ccccc1; Pro(trans-4-F) = O=C(O)[C@@H]1C[C@@H](F)CN1; Pic(3) = 3-piperidinecarboxylic acid; Arg(Me) = CNC(=N)NCCC[C@H](N)C(=O)O; Dap(CONH2) = NC(=O)NC[C@H](N)C(=O)O; cisHyp = O=C(O)[C@@H]1C[C@H](O)CN1; Hyp = O=C(O)[C@@H]1C[C@@H](O)CN1; d4Pal = N[C@H](Cc1ccncc1)C(=O)O; Pip = O=C(O)[C@@H]1CCCCN1; NMeA = CN[C@@H](C)C(=O)O; Thz = O=C(O)[C@@H]1CSCN1; dNMeA = CN[C@H](C)C(=O)O; Aze = O=C(O)[C@@H]1CCN1; Nva = CCC[C@H](N)C(=O)O; 2Abz = Nc1ccccc1C(=O)O; Aib = CC(C)(N)C(=O)O; azaGly = NNC(=O)O; Sar = CNCC(=O)O
# B1: des(1)-Ac-[D-Tyr2,Thz3,Thr5,AzaGly7,Arg(Me)9,Trp10]MS10 (peptide)
# peptide: Ac-[dY][Thz]NTF[azaGly]L[Arg(Me)]W-NH2
# SMILES: CNC(=N)NCCC[C@H](NC(=O)[C@H](CC(C)C)NC(=O)NNC(=O)[C@H](Cc1ccccc1)NC(=O)[C@@H](NC(=O)[C@H](CC(N)=O)NC(=O)[C@@H]1CSCN1C(=O)[C@@H](Cc1ccc(O)cc1)NC(C)=O)[C@@H](C)O)C(=O)N[C@@H](Cc1c[nH]c2ccccc12)C(N)=O
# B2: des(1)-Ac-[D-Tyr2,Sar3,Thr5,AzaGly7,Arg(Me)9,Trp10]MS10 (peptide)
# peptide: Ac-[dY][Sar]NTF[azaGly]L[Arg(Me)]W-NH2
# SMILES: CNC(=N)NCCC[C@H](NC(=O)[C@H](CC(C)C)NC(=O)NNC(=O)[C@H](Cc1ccccc1)NC(=O)[C@@H](NC(=O)[C@H](CC(N)=O)NC(=O)CN(C)C(=O)[C@@H](Cc1ccc(O)cc1)NC(C)=O)[C@@H](C)O)C(=O)N[C@@H](Cc1c[nH]c2ccccc12)C(N)=O
# B3: des(1)-Ac-[D-Tyr2,NMeAla3,Thr5,AzaGly7,Arg(Me)9,Trp10]MS10 (peptide)
# peptide: Ac-[dY][NMeA]NTF[azaGly]L[Arg(Me)]W-NH2
# SMILES: CNC(=N)NCCC[C@H](NC(=O)[C@H](CC(C)C)NC(=O)NNC(=O)[C@H](Cc1ccccc1)NC(=O)[C@@H](NC(=O)[C@H](CC(N)=O)NC(=O)[C@H](C)N(C)C(=O)[C@@H](Cc1ccc(O)cc1)NC(C)=O)[C@@H](C)O)C(=O)N[C@@H](Cc1c[nH]c2ccccc12)C(N)=O
# B4: des(1)-Ac-[D-Tyr2,D-NMeAla3,Thr5,AzaGly7,Arg(Me)9,Trp10]MS10 (peptide)
# peptide: Ac-[dY][dNMeA]NTF[azaGly]L[Arg(Me)]W-NH2
# SMILES: CNC(=N)NCCC[C@H](NC(=O)[C@H](CC(C)C)NC(=O)NNC(=O)[C@H](Cc1ccccc1)NC(=O)[C@@H](NC(=O)[C@H](CC(N)=O)NC(=O)[C@@H](C)N(C)C(=O)[C@@H](Cc1ccc(O)cc1)NC(C)=O)[C@@H](C)O)C(=O)N[C@@H](Cc1c[nH]c2ccccc12)C(N)=O
# B5: des(1)-Ac-[D-Tyr2,Aze(3)3,Thr5,AzaGly7,Arg(Me)9,Trp10]MS10 (peptide)
# peptide: Ac-[dY][Azetidine3carboxylic]NTF[azaGly]L[Arg(Me)]W-NH2
# SMILES: CNC(=N)NCCC[C@H](NC(=O)[C@H](CC(C)C)NC(=O)NNC(=O)[C@H](Cc1ccccc1)NC(=O)[C@@H](NC(=O)[C@H](CC(N)=O)NC(=O)C1CN(C(=O)[C@@H](Cc2ccc(O)cc2)NC(C)=O)C1)[C@@H](C)O)C(=O)N[C@@H](Cc1c[nH]c2ccccc12)C(N)=O
# B6: des(1)-Ac-[D-Tyr2,Pic(2)3,Thr5,AzaGly7,Arg(Me)9,Trp10]MS10 (peptide)
# peptide: Ac-[dY][Pip]NTF[azaGly]L[Arg(Me)]W-NH2
# SMILES: CNC(=N)NCCC[C@H](NC(=O)[C@H](CC(C)C)NC(=O)NNC(=O)[C@H](Cc1ccccc1)NC(=O)[C@@H](NC(=O)[C@H](CC(N)=O)NC(=O)[C@@H]1CCCCN1C(=O)[C@@H](Cc1ccc(O)cc1)NC(C)=O)[C@@H](C)O)C(=O)N[C@@H](Cc1c[nH]c2ccccc12)C(N)=O
# B7: des(1)-Ac-[D-Tyr2,Pro(4F)3,Thr5,AzaGly7,Arg(Me)9,Trp10]MS10 (peptide)
# peptide: Ac-[dY][Pro(trans-4-F)]NTF[azaGly]L[Arg(Me)]W-NH2
# SMILES: CNC(=N)NCCC[C@H](NC(=O)[C@H](CC(C)C)NC(=O)NNC(=O)[C@H](Cc1ccccc1)NC(=O)[C@@H](NC(=O)[C@H](CC(N)=O)NC(=O)[C@@H]1C[C@@H](F)CN1C(=O)[C@@H](Cc1ccc(O)cc1)NC(C)=O)[C@@H](C)O)C(=O)N[C@@H](Cc1c[nH]c2ccccc12)C(N)=O
# B8: des(1)-Ac-[D-Tyr2,Abz(2)3,Thr5,AzaGly7,Arg(Me)9,Trp10]MS10 (peptide)
# peptide: Ac-[dY][2Abz]NTF[azaGly]L[Arg(Me)]W-NH2
# SMILES: CNC(=N)NCCC[C@H](NC(=O)[C@H](CC(C)C)NC(=O)NNC(=O)[C@H](Cc1ccccc1)NC(=O)[C@@H](NC(=O)[C@H](CC(N)=O)NC(=O)c1ccccc1NC(=O)[C@@H](Cc1ccc(O)cc1)NC(C)=O)[C@@H](C)O)C(=O)N[C@@H](Cc1c[nH]c2ccccc12)C(N)=O
# B9: des(1)-Ac-[D-Tyr2,Hyp3,Nva4,Thr5,AzaGly7,Arg(Me)9,Trp10]MS10 (peptide)
# peptide: Ac-[dY][Hyp][Nva]TF[azaGly]L[Arg(Me)]W-NH2
# SMILES: CCC[C@H](NC(=O)[C@@H]1C[C@@H](O)CN1C(=O)[C@@H](Cc1ccc(O)cc1)NC(C)=O)C(=O)N[C@H](C(=O)N[C@@H](Cc1ccccc1)C(=O)NNC(=O)N[C@@H](CC(C)C)C(=O)N[C@@H](CCCNC(=N)NC)C(=O)N[C@@H](Cc1c[nH]c2ccccc12)C(N)=O)[C@@H](C)O
# B10: des(1)-Ac-[D-Tyr2,Hyp3,Thr5,erythro-Ser(3Phenyl)6,AzaGly7,Arg(Me)9,Trp10]MS10 (peptide)
# peptide: Ac-[dY][Hyp]NT[Phe(βS-OH)][azaGly]L[Arg(Me)]W-NH2
# SMILES: CNC(=N)NCCC[C@H](NC(=O)[C@H](CC(C)C)NC(=O)NNC(=O)[C@@H](NC(=O)[C@@H](NC(=O)[C@H](CC(N)=O)NC(=O)[C@@H]1C[C@@H](O)CN1C(=O)[C@@H](Cc1ccc(O)cc1)NC(C)=O)[C@@H](C)O)[C@@H](O)c1ccccc1)C(=O)N[C@@H](Cc1c[nH]c2ccccc12)C(N)=O
# B11: des(1)-Ac-[D-Tyr2,D-Trp3,Alb4,Thr5,AzaGly7,Arg(Me)9,Trp10]MS10 (peptide)
# peptide: Ac-[dY][dW][Dap(CONH2)]TF[azaGly]L[Arg(Me)]W-NH2
# SMILES: CNC(=N)NCCC[C@H](NC(=O)[C@H](CC(C)C)NC(=O)NNC(=O)[C@H](Cc1ccccc1)NC(=O)[C@@H](NC(=O)[C@H](CNC(N)=O)NC(=O)[C@@H](Cc1c[nH]c2ccccc12)NC(=O)[C@@H](Cc1ccc(O)cc1)NC(C)=O)[C@@H](C)O)C(=O)N[C@@H](Cc1c[nH]c2ccccc12)C(N)=O
# B12: des(1)-Ac-[D-Tyr2,D-Pya(4)3,Alb4,Thr5,AzaGly7,Arg(Me)9,Trp10]MS10 (peptide)
# peptide: Ac-[dY][d4Pal][Dap(CONH2)]TF[azaGly]L[Arg(Me)]W-NH2
# SMILES: CNC(=N)NCCC[C@H](NC(=O)[C@H](CC(C)C)NC(=O)NNC(=O)[C@H](Cc1ccccc1)NC(=O)[C@@H](NC(=O)[C@H](CNC(N)=O)NC(=O)[C@@H](Cc1ccncc1)NC(=O)[C@@H](Cc1ccc(O)cc1)NC(C)=O)[C@@H](C)O)C(=O)N[C@@H](Cc1c[nH]c2ccccc12)C(N)=O
# B13: des(1)-Ac-[D-Tyr2,D-Trp3,Thr5,AzaGly7,D-Arg9,Trp10]MS10 (peptide)
# peptide: Ac-[dY][dW]NTF[azaGly]L[dR]W-NH2
# SMILES: CC(=O)N[C@H](Cc1ccc(O)cc1)C(=O)N[C@H](Cc1c[nH]c2ccccc12)C(=O)N[C@@H](CC(N)=O)C(=O)N[C@H](C(=O)N[C@@H](Cc1ccccc1)C(=O)NNC(=O)N[C@@H](CC(C)C)C(=O)N[C@H](CCCNC(=N)N)C(=O)N[C@@H](Cc1c[nH]c2ccccc12)C(N)=O)[C@@H](C)O
# B14: des(1)-Ac-[D-Tyr2,Aze(2)3,Thr5,AzaGly7,Arg(Me)9,Trp10]MS10 (peptide)
# peptide: Ac-[dY][Aze]NTF[azaGly]L[Arg(Me)]W-NH2
# SMILES: CNC(=N)NCCC[C@H](NC(=O)[C@H](CC(C)C)NC(=O)NNC(=O)[C@H](Cc1ccccc1)NC(=O)[C@@H](NC(=O)[C@H](CC(N)=O)NC(=O)[C@@H]1CCN1C(=O)[C@@H](Cc1ccc(O)cc1)NC(C)=O)[C@@H](C)O)C(=O)N[C@@H](Cc1c[nH]c2ccccc12)C(N)=O
# B15: des(1)-Ac-[D-Tyr2,Gly3,Thr5,AzaGly7,Arg(Me)9,Trp10]MS10 (peptide)
# peptide: Ac-[dY]GNTF[azaGly]L[Arg(Me)]W-NH2
# SMILES: CNC(=N)NCCC[C@H](NC(=O)[C@H](CC(C)C)NC(=O)NNC(=O)[C@H](Cc1ccccc1)NC(=O)[C@@H](NC(=O)[C@H](CC(N)=O)NC(=O)CNC(=O)[C@@H](Cc1ccc(O)cc1)NC(C)=O)[C@@H](C)O)C(=O)N[C@@H](Cc1c[nH]c2ccccc12)C(N)=O
# B16: des(1)-Ac-[D-Tyr2,Aib3,Thr5,AzaGly7,Arg(Me)9,Trp10]MS10 (peptide)
# peptide: Ac-[dY][Aib]NTF[azaGly]L[Arg(Me)]W-NH2
# SMILES: CNC(=N)NCCC[C@H](NC(=O)[C@H](CC(C)C)NC(=O)NNC(=O)[C@H](Cc1ccccc1)NC(=O)[C@@H](NC(=O)[C@H](CC(N)=O)NC(=O)C(C)(C)NC(=O)[C@@H](Cc1ccc(O)cc1)NC(C)=O)[C@@H](C)O)C(=O)N[C@@H](Cc1c[nH]c2ccccc12)C(N)=O
# B17: des(1)-Ac-[D-Tyr2,D-Trp3,D-Pro5,AzaGly7,Arg(Me)9,Trp10]MS10 (peptide)
# peptide: Ac-[dY][dW]N[dP]F[azaGly]L[Arg(Me)]W-NH2
# SMILES: CNC(=N)NCCC[C@H](NC(=O)[C@H](CC(C)C)NC(=O)NNC(=O)[C@H](Cc1ccccc1)NC(=O)[C@H]1CCCN1C(=O)[C@H](CC(N)=O)NC(=O)[C@@H](Cc1c[nH]c2ccccc12)NC(=O)[C@@H](Cc1ccc(O)cc1)NC(C)=O)C(=O)N[C@@H](Cc1c[nH]c2ccccc12)C(N)=O
# Biological target: human OT7T175 (metastin receptor) (human) (UniProt Q969F8)
# Sequence (Q969F8 whole entry L364H): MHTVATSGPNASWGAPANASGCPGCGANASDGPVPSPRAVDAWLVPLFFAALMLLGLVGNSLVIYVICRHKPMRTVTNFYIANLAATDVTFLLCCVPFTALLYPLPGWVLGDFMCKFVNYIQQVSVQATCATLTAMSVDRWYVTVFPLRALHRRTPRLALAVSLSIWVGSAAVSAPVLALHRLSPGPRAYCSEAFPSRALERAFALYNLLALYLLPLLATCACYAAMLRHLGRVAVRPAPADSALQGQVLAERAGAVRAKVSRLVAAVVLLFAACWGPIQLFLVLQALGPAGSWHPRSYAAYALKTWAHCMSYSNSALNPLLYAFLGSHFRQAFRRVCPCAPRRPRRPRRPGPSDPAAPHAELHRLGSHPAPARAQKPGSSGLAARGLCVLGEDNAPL
# Assay: cell-based or functional assay
row,Binder,intracellular Ca ion level-increasing activity [specific activity to Metastin (1-54)] (relative to Metastin (1-54))
1,B1,1.4
2,B2,8.8
3,B3,2.7
4,B4,3.2
5,"Ac-Y[Hyp]NTF[azaGly]L[Arg(Me)]W-NH2 [des(1)-Ac-[Tyr2,Hyp3,Thr5,AzaGly7,Arg(Me)9,Trp10]MS10]",1.1
6,"Ac-[dY][Pic(3)]NTF[azaGly]L[Arg(Me)]W-NH2 [des(1)-Ac-[D-Tyr2,Pic(3)3,Thr5,AzaGly7,Arg(Me)9,Trp10]MS10]",2.2
7,B5,4.1
8,B6,1.1
9,B7,0.7
10,"{3‑(p-hydroxyphenyl)propionyl}-[Hyp]NTF[azaGly]L[Arg(Me)]W-NH2 [des(1-2)-3-(p-Hydroxyphenyl)propionyl-[Hyp3,Thr5,AzaGly7,Arg(Me)9,Trp10]MS10]",1.1
11,B8,3.2
12,B9,1.2
13,"Ac-[dY][Hyp]NTF[azaGly]L[Arg(Me)]W-NH2 [des(1)-Ac-[D-Tyr2,Hyp3,Thr5,AzaGly7,Arg(Me)9,Trp10]MS10]",2
14,B10,0.8
15,B11,1
16,"Ac-[dY][cisHyp]NTF[azaGly]L[Arg(Me)]W-NH2 [des(1)-Ac-[D-Tyr2,cisHyp3,Thr5,AzaGly7,Arg(Me)9,Trp10]MS10]",0.6
17,B12,2.6
18,B13,12.8
19,B14,0.8
20,B15,3.1
21,B16,1.5
22,B17,3.8
